In publication PMC4376737, “An S188V Mutation Alters Substrate Specificity of Non-Stereospecific α-Haloalkanoic Acid Dehalogenase E (DehE)” (PLoS ONE, 2015):

Legend:
Conditions in all cases: 0.1 M Tris-acetate pH 7.6, 30°C, apparent
[1] = tested on: T1, C[C@@H](Cl)C(=O)O; assay: colourimetric chloride release (Bergmann and Sanik), A460; format: biochemical, Rhizobium sp. RC1
T1 construct: recombinant from pET-22b(+)-dehE in E. coli, purified from cell-free extract; 32 kDa band on SDS-PAGE; monomeric
Text: (§1) colourimetric chloride release (Bergmann and Sanik), A460 on DehE (non-stereospecific α-haloalkanoic acid dehalogenase E)

[2] = tested on: T2, C[C@H](Cl)C(=O)O; assay: as above; format: biochemical, Rhizobium sp. RC1
T2 construct: recombinant from pET-22b(+)-dehE in E. coli, purified from cell-free extract; 32 kDa band on SDS-PAGE; monomeric
Text: as §1

[3] = tested on: T3, O=C(O)CCCl; assay: as above; format: biochemical, Rhizobium sp. RC1
T3 construct: recombinant from pET-22b(+)-dehE in E. coli, purified from cell-free extract; 32 kDa band on SDS-PAGE; monomeric
Text: as §1

[4] = tested on: C[C@H](Cl)C(=O)O; assay: purified protein
[5] = tested on: C[C@@H](Cl)C(=O)O; assay: purified protein

DehE (non-stereospecific α-haloalkanoic acid dehalogenase E) (Rhizobium sp. RC1; S188V)
Km [1]: (4.5 ± 0.01) x 10^-4 M | kcat [1]: 9.18 s⁻¹ | kcat/Km [1]: 20400 M⁻¹ s⁻¹ | Km [2]: (4.2 ± 0.02) x 10^-4 M | kcat [2]: 13.1 s⁻¹ | kcat/Km [2]: 31200 M⁻¹ s⁻¹ | Km [3]: (4.9 ± 0.02) x 10^-4 M | kcat [3]: 12.6 s⁻¹ | kcat/Km [3]: 25600 M⁻¹ s⁻¹

DehE (non-stereospecific α-haloalkanoic acid dehalogenase E) (Rhizobium sp. RC1)
Km [4]: (4.3 ± 0.02) x 10^-4 M | kcat [4]: 12.3 s⁻¹ | kcat/Km [4]: 28600 M⁻¹ s⁻¹ | Km [5]: (4.8 ± 0.03) x 10^-4 M | kcat [5]: 7.76 s⁻¹ | kcat/Km [5]: 16100 M⁻¹ s⁻¹
